The target of the assay is bovine serum albumin (bovine) (UniProt P02769). Description: gel-shift, 0.1 mg/ml conjugate with 10 mg/ml BSA, 7.5% native PAA gel, in situ peroxidase activity; Rf of the conjugate alone 0.31.
bovine serum albumin (bovine), sequence (P02769 25-607 limits assumed): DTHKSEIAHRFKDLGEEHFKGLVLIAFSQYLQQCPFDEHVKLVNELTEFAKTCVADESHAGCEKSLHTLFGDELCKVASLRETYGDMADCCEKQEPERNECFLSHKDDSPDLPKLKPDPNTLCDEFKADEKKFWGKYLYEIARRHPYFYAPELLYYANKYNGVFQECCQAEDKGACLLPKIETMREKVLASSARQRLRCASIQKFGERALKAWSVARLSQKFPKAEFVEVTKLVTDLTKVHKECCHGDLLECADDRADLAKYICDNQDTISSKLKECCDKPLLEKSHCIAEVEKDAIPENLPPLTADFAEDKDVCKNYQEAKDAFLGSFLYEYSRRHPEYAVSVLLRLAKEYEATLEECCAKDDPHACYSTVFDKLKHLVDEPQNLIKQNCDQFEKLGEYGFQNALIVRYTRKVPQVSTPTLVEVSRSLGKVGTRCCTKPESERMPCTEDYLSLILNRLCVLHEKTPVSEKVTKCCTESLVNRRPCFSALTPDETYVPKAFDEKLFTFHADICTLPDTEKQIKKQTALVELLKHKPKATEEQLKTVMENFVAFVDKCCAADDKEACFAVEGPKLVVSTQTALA

B1: iMab142-xx-0002-HRP conjugate (protein, not shown: small tags and cut ends)
chain: MNVKLVEKGGNFVENDDDLKLTCRAEGYTIGPYSMGWFRQAPNDDSTNVSCINMGGGITYYGDSVKERFDIRRDNASNTVTLSMDDLQPEDSAVYNCAADWWDGFTYGSTWYNPSSYDYRGQGTDVTVSS
modifications: Amines (N-terminus and Lys) were thiolated with SATA, deacetylated, and coupled by thioether to maleimide-activated horseradish peroxidase. The sites and the iMab:HRP ratio of the product are not stated.
With B1, the retardation factor (Rf) amounted to 0.31.

Source of the values: US20060140889A1.
